Results: patent publication US20210163604A1 (MITSUBISHI TANABE PHARMA, published 2021)

Key:
human cMET [1] = molecular target: T1, human cMET (human, UniProt P08581 25-932, limits assumed); test: SPR (Met Binding KD)
T1 construct: also called hMET; HGFR

[2] = molecular target: T2, monkey cMET (Macaca fascicularis, Cynomolgus Macaque) (Cynomolgus Macaque (Macaca fascicularis), UniProt A0A2K5UM36 25-932); test: ELISA, species cross-reactivity, antibody titrated on cynomolgus cMET; x axis printed -8 to 2 with ug/mL (log10)
T2 construct: also called Cyno cMET; NHP
T2 sequence (A0A2K5UM36 entry or part of it limits assumed): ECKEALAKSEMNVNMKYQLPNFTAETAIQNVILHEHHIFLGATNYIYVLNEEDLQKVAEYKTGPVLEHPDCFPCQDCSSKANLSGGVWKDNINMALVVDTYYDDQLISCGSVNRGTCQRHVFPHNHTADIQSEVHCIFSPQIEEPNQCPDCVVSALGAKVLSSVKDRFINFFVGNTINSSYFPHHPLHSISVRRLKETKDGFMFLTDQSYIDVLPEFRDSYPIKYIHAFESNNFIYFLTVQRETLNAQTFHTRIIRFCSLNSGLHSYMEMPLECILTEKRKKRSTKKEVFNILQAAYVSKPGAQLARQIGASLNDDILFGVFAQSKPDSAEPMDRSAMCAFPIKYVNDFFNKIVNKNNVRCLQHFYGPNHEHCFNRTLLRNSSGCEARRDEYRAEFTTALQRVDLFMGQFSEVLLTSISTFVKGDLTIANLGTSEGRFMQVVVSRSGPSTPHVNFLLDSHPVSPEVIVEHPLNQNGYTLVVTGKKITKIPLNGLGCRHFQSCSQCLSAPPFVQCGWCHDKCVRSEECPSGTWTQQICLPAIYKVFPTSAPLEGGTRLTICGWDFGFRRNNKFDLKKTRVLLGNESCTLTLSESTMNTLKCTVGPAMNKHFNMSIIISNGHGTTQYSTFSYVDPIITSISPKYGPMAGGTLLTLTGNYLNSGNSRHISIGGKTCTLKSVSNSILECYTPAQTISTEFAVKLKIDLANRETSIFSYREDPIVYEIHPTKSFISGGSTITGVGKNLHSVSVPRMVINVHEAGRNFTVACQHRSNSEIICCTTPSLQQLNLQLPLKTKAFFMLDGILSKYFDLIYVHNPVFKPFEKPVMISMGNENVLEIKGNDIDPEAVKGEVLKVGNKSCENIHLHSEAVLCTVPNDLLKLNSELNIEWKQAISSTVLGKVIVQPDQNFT

human cMET [3] = molecular target: T1, human cMET; test: ELISA, species cross-reactivity, antibody titrated on human cMET; x axis printed -8 to 2 with ug/mL (log10)
[4] = molecular target: T3, Recombinant Human c-Met-10x His (human, UniProt P08581 25-932); test: MET Binding ELISA on plate-bound human cMET, direct binding; the half-maximal value is printed as IC50
T3 construct: Made in-house
T3 sequence (P08581 other isoform, or with tags, fused parts or gaps limits assumed): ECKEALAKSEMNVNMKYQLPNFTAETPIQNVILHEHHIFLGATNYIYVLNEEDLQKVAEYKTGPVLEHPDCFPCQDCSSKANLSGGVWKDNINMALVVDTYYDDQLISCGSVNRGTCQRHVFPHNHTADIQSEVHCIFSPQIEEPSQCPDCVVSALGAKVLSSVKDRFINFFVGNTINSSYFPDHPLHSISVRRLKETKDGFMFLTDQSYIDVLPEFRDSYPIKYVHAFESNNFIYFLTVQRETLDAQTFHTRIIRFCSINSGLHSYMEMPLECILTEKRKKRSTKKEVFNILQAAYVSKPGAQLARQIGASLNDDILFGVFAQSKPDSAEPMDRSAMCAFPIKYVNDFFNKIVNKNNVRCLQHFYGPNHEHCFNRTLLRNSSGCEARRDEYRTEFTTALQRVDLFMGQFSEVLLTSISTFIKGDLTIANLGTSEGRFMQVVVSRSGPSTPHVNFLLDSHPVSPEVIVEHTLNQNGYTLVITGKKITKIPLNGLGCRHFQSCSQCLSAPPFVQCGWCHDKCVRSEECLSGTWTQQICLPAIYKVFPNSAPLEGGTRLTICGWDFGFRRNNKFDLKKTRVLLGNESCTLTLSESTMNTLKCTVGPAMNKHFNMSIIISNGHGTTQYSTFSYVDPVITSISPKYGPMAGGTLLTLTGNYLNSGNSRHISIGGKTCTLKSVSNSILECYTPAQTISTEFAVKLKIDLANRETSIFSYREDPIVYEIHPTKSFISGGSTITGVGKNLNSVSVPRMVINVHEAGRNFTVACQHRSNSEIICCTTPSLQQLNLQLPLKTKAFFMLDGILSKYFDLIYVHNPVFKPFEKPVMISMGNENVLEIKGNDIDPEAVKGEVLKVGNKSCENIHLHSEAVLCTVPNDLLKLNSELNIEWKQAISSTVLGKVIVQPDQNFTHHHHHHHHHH
Source text: Relative binding strength is indicated by luminescence (y-axis).

human cMET [5] = molecular target: T1, human cMET; test: ELISA on human cMET, ratio against the parental antibody
rat cMET = molecular target: T4, rat cMET (rat, UniProt P97523 25-935, limits assumed); test: ELISA on rat cMET, ratio against the parental antibody
T4 construct: also called rMET
T4 sequence (P97523 25-935 limits assumed): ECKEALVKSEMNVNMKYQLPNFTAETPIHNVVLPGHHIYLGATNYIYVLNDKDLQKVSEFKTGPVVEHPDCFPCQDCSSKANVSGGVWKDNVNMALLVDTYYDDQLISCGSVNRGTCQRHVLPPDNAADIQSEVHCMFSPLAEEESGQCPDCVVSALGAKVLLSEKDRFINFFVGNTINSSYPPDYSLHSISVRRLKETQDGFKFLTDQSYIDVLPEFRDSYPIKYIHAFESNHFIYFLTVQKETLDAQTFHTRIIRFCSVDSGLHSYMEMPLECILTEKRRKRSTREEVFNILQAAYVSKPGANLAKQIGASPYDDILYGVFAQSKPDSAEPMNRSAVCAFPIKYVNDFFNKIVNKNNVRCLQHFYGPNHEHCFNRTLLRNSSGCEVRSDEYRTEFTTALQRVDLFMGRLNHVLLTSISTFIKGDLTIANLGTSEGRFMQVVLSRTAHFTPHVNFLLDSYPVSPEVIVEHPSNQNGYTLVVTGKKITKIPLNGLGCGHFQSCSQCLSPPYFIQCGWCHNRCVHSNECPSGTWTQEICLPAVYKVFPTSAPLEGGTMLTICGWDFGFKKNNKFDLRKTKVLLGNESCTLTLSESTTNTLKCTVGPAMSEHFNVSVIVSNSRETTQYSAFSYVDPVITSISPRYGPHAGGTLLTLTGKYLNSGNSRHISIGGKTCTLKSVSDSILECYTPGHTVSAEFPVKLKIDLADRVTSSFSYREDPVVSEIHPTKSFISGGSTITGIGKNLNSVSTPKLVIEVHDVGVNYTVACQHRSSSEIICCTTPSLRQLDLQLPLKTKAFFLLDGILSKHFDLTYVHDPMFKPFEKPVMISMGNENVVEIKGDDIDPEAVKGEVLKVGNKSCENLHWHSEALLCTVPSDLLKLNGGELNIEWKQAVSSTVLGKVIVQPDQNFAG

T1 sequence (P08581 25-932 limits assumed): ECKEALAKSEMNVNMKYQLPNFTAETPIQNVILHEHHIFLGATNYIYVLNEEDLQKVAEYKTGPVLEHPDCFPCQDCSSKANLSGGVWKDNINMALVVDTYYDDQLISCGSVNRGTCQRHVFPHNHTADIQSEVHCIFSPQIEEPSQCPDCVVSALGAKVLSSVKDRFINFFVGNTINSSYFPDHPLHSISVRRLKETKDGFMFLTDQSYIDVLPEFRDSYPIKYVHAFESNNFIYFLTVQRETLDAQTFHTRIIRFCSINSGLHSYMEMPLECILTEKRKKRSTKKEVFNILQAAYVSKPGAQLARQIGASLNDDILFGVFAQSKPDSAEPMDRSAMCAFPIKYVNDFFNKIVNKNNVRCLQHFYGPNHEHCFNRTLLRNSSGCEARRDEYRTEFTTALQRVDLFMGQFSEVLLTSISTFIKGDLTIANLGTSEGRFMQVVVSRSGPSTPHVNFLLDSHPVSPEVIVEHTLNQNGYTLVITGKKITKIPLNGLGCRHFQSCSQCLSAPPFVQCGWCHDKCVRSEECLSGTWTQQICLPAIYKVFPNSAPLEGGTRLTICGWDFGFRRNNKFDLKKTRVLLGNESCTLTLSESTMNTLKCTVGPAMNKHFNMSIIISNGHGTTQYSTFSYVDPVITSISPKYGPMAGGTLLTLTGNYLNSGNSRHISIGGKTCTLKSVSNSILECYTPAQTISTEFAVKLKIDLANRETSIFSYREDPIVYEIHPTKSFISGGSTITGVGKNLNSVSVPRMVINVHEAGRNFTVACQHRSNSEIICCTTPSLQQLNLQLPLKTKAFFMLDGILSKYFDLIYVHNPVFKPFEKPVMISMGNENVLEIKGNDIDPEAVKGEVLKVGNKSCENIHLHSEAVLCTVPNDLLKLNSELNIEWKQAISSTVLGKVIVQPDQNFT

Molecule | ELISA hMET vs parental (human cMET [5]) | ELISA rMET vs parental (rat cMET) | also measured
5D5 (agonist Met-mAb antibody, agonist positive control) | – | – | Kd (human cMET [1]): 0.85 nM
F6B1P3D12 mouse monoclonal anti-cMET antibody (antibody, V domains shown, Mouse hybridoma antibody) VH: QVQLQQSGAELAKPGASVKMSCRASGYTFTSYWMHWVKQRPGQGLDWIGYIKPSTDNTEYNQKFKDKATLTADKSSSTAYMQLSSLTSEDSAVYYCARSYGNYPLMDYWGQGTSVTVSS VL: QIVLTQSPAIMSASPGEKVTLTCSASSSVTSNYLYWYQQKPGSSPKLWIYSTSNLASGVPARFSGSGSGTSYSLTISSMEAEDAASYFCHQWSSYPPTFGSGTKLEIKR | – | – | EC50 (read off the curve) [2]: ~0.2 µg/mL; EC50 (read off the curve) (human cMET [3]): ~0.2 µg/mL
F6B1P1E2 mouse monoclonal anti-cMET antibody (antibody, V domains shown, Mouse hybridoma antibody) VH: QVQLQQSGAELAKPGASVKMSCKASGYTFTSYWMHWVKQRPGQGLEWIGYINPSTDYTEYNQKFKDKATLTADKSSTTAYMQLSSLTSEDSAVYYCVRSYGNYPLMDYWGQGTSVTVSS VL: QIVLTQSPAIMSASPGEKVTLTCSASSSVSSNYLYWYHQKPGSSPKLWIYSTSNLASGVPVRFSGSGSGTSYSLTISSMEAEDAASYFCHQWSSYPPTFGSGTKLEIKR | – | – | EC50 (read off the curve) [2]: ~0.2 µg/mL; EC50 (read off the curve) (human cMET [3]): ~0.2 µg/mL
F6AP8E2 mouse monoclonal anti-cMET antibody (antibody, V domains shown, Mouse hybridoma antibody) VH: EVQLQQSGAELVRPGALVKLSCKASGFNINDYFMHWVKQRPEQGLEWIGWIDPENGNTIYDPKFQGKASITADTSSNTAYLQLSSLTSEDTAVYYCARGGNYLRESYYYAMDYWGQGTSVTVSS VL: DIVMTQSPKSMSMSVGERVTLSCKASENVGTYVSWYQQKPDQSPKLLIYGASNRYTGVPDRFTGSGSATDFTLTISSVQAEDLADYHCGQSYSYPLTFGAGTKLELKR | – | – | EC50 (read off the curve) [2]: ~0.2 µg/mL; EC50 (read off the curve) (human cMET [3]): ~0.2 µg/mL; Kd (human cMET [1]): 0.18 nM
F6BP2D4 mouse monoclonal anti-cMET antibody (antibody, V domains shown, Mouse hybridoma antibody) VH: QVQLQQSGAELAKPGASVKMSCKASGYTFTSYWMHWVKQRPGQGLEWIGYINPSTDYIEYNQKFKDKATLTAGKSSSTAYMQLSSLTSEDSAVYYCARSYGNFPLMDYWGQGTSVTVSS VL: QIVLTQSPAIMSASPGEKVTLTCSASSSVSSNYLYWYQQKPGSSPKLWIYSTSNLASGVPVRFSGSGSGTSYSLTISSMEAEDAASYFCHQWSSYPPTFGSGTKLEIKR | – | – | EC50 (read off the curve) [2]: ~0.2 µg/mL; EC50 (read off the curve) (human cMET [3]): ~0.2 µg/mL
hD12-VI (antibody hD12 attached to the payload of chemical formula VI, stochastic conjugation) (antibody, human IgG2, kappa, V domains shown, payload possibly on cysteines (random positions); payload of chemical formula VI linked through maleimide to cysteine thiols at random positions, Antibody-drug conjugate; also called hD12-vc-VI) VH: QVQLVQSGAEVKKPGASVKVSCKASGYTFTSYWMHWVKQAPGQGLDWIGYIKPSTDNTEYNQKFKDKATLTADKSTSTAYMELSSLRSEDTAVYYCARSYGNYPLMDYWGQGTTVTVSS VL: QIVLTQSPAILSLSPGERATLSCSASSSVTSNYLYWYQQKPGSSPKLLIYSTSNLASGVPARFSGSGSGTSYTLTISSLEAEDAASYFCHQWSSYPPTFGSGTKLEIKR | – | – | IC50 [4]: 0.036 µg/mL
hD12-II (antibody hD12 attached to the payload of chemical formula II, stochastic conjugation) (antibody, human IgG2, kappa, V domains shown, payload possibly on cysteines (random positions); payload of chemical formula II (pyrrolobenzodiazepine toxin and linking group) linked through maleimide to cysteine thiols at random positions, also called hD12-vc-II) VH: QVQLVQSGAEVKKPGASVKVSCKASGYTFTSYWMHWVKQAPGQGLDWIGYIKPSTDNTEYNQKFKDKATLTADKSTSTAYMELSSLRSEDTAVYYCARSYGNYPLMDYWGQGTTVTVSS VL: QIVLTQSPAILSLSPGERATLSCSASSSVTSNYLYWYQQKPGSSPKLLIYSTSNLASGVPARFSGSGSGTSYTLTISSLEAEDAASYFCHQWSSYPPTFGSGTKLEIKR | – | – | IC50 [4]: 0.052 µg/mL
hD12-VII (antibody hD12 attached to the payload of chemical formula VII, stochastic conjugation) (antibody, human IgG2, kappa, V domains shown, payload possibly on cysteines (random positions); payload of chemical formula VII linked through maleimide to cysteine thiols at random positions, Antibody-drug conjugate; also called hD12-vc-VII) VH: QVQLVQSGAEVKKPGASVKVSCKASGYTFTSYWMHWVKQAPGQGLDWIGYIKPSTDNTEYNQKFKDKATLTADKSTSTAYMELSSLRSEDTAVYYCARSYGNYPLMDYWGQGTTVTVSS VL: QIVLTQSPAILSLSPGERATLSCSASSSVTSNYLYWYQQKPGSSPKLLIYSTSNLASGVPARFSGSGSGTSYTLTISSLEAEDAASYFCHQWSSYPPTFGSGTKLEIKR | – | – | IC50 [4]: 0.042 µg/mL
hD12-IV (antibody hD12 attached to the payload of chemical formula IV, stochastic conjugation) (antibody, human IgG2, kappa, V domains shown, payload possibly on cysteines (random positions); payload of chemical formula IV linked through maleimide to cysteine thiols at random positions, Antibody-drug conjugate; also called hD12-vc-IV) VH: QVQLVQSGAEVKKPGASVKVSCKASGYTFTSYWMHWVKQAPGQGLDWIGYIKPSTDNTEYNQKFKDKATLTADKSTSTAYMELSSLRSEDTAVYYCARSYGNYPLMDYWGQGTTVTVSS VL: QIVLTQSPAILSLSPGERATLSCSASSSVTSNYLYWYQQKPGSSPKLLIYSTSNLASGVPARFSGSGSGTSYTLTISSLEAEDAASYFCHQWSSYPPTFGSGTKLEIKR | – | – | IC50 [4]: 0.058 µg/mL
hD12-XI (antibody hD12 attached to the payload of chemical formula XI, stochastic conjugation) (antibody, human IgG2, kappa, V domains shown, payload possibly on cysteines (random positions); payload of chemical formula XI linked through maleimide to cysteine thiols at random positions, Antibody-drug conjugate; also called hD12-vc-XI) VH: QVQLVQSGAEVKKPGASVKVSCKASGYTFTSYWMHWVKQAPGQGLDWIGYIKPSTDNTEYNQKFKDKATLTADKSTSTAYMELSSLRSEDTAVYYCARSYGNYPLMDYWGQGTTVTVSS VL: QIVLTQSPAILSLSPGERATLSCSASSSVTSNYLYWYQQKPGSSPKLLIYSTSNLASGVPARFSGSGSGTSYTLTISSLEAEDAASYFCHQWSSYPPTFGSGTKLEIKR | – | – | IC50 [4]: 0.103 µg/mL
humanized P3D12 antibody, HC SEQ ID NO: 108 (P3D12 VH-cdr) / LC SEQ ID NO: 47 (P3D12 VL-fra) (antibody, V domains shown) VH: QVQLVQSGAEVKKPGASVKVSCKASGYTFTSYWMHWVKQAPGQGLDWIGYIKPSTDNTEYNQKFKDKATLTADKSTSTAYMELSSLRSEDTAVYYCARSYGNYPLMDYWGQGTTVTVSS VL: QIVLTQSPAILSLSPGERATLSCSASSSVTSNYLYWYQQKPGSSPKLLIYSTSNLASGVPARFSGSGSGTSYTLTISSLEAEDAASYFCHQWSSYPPTFGSGTKLEIKR | 0.7 | 0.9 | –
humanized P3D12 antibody, HC SEQ ID NO: 105 (P3D12 VH-fra) / LC SEQ ID NO: 47 (P3D12 VL-fra) (antibody, V domains shown) VH: QVQLQQSGAEVKKPGASVKVSCKASGYTFTSYWMHWVKQRPGQGLDWIGYIKPSTDNTEYNQKFKDRVTLTADKSTSTAYMQLSNLISEDTAVYYCARSYGNYPLMDYWGQGTSVTVSS VL: QIVLTQSPAILSLSPGERATLSCSASSSVTSNYLYWYQQKPGSSPKLLIYSTSNLASGVPARFSGSGSGTSYTLTISSLEAEDAASYFCHQWSSYPPTFGSGTKLEIKR | 1.7 | 1.4 | –
humanized P3D12 antibody, HC SEQ ID NO: 107 (P3D12 VH-abb/sdr) / LC SEQ ID NO: 47 (P3D12 VL-fra) (antibody, V domains shown) VH: QVQLVQSGAEVKKPGASVKVSCKASGYTFTSYWMHWVKQAPGQGLDWMGYIKPSTDNTEYAQKFQGRVTLTADKSTSTAYMELSSLRSEDTAVYYCARSYGNYPLMDYWGQGTTVTVSS VL: QIVLTQSPAILSLSPGERATLSCSASSSVTSNYLYWYQQKPGSSPKLLIYSTSNLASGVPARFSGSGSGTSYTLTISSLEAEDAASYFCHQWSSYPPTFGSGTKLEIKR | 1 | 0.5 | –
humanized P3D12 antibody, HC SEQ ID NO: 108 (P3D12 VH-cdr) / LC SEQ ID NO: 48 (P3D12 VL-abb/sdr) (antibody, V domains shown) VH: QVQLVQSGAEVKKPGASVKVSCKASGYTFTSYWMHWVKQAPGQGLDWIGYIKPSTDNTEYNQKFKDKATLTADKSTSTAYMELSSLRSEDTAVYYCARSYGNYPLMDYWGQGTTVTVSS VL: QIVLTQSPATLSLSPGERATLSCRASQSVTSNYLYWYQQKPGSSPRLLIYSTSNLASGVPARFSGSGSGTDYTLTISRLEPEDFASYFCHQWSSYPPTFGSGTKLEIKR | 1.3 | 2.7 | –
humanized P3D12 antibody, HC SEQ ID NO: 108 (P3D12 VH-cdr) / LC SEQ ID NO: 49 (P3D12 VL-cdr) (antibody, V domains shown) VH: QVQLVQSGAEVKKPGASVKVSCKASGYTFTSYWMHWVKQAPGQGLDWIGYIKPSTDNTEYNQKFKDKATLTADKSTSTAYMELSSLRSEDTAVYYCARSYGNYPLMDYWGQGTTVTVSS VL: QIVLTQSPATLSLSPGERATLSCSASSSVTSNYLYWYQQKPGSSPRLLIYSTSNLASGVPARFSGSGSGTSYTLTISRLEPEDFASYFCHQWSSYPPTFGSGTKLEIKR | 1 | 2 | –
humanized P3D12 antibody, HC SEQ ID NO: 105 (P3D12 VH-fra) / LC SEQ ID NO: 48 (P3D12 VL-abb/sdr) (antibody, V domains shown) VH: QVQLQQSGAEVKKPGASVKVSCKASGYTFTSYWMHWVKQRPGQGLDWIGYIKPSTDNTEYNQKFKDRVTLTADKSTSTAYMQLSNLISEDTAVYYCARSYGNYPLMDYWGQGTSVTVSS VL: QIVLTQSPATLSLSPGERATLSCRASQSVTSNYLYWYQQKPGSSPRLLIYSTSNLASGVPARFSGSGSGTDYTLTISRLEPEDFASYFCHQWSSYPPTFGSGTKLEIKR | 1.8 | 3.8 | –
humanized P3D12 antibody, HC SEQ ID NO: 105 (P3D12 VH-fra) / LC SEQ ID NO: 49 (P3D12 VL-cdr) (antibody, V domains shown) VH: QVQLQQSGAEVKKPGASVKVSCKASGYTFTSYWMHWVKQRPGQGLDWIGYIKPSTDNTEYNQKFKDRVTLTADKSTSTAYMQLSNLISEDTAVYYCARSYGNYPLMDYWGQGTSVTVSS VL: QIVLTQSPATLSLSPGERATLSCSASSSVTSNYLYWYQQKPGSSPRLLIYSTSNLASGVPARFSGSGSGTSYTLTISRLEPEDFASYFCHQWSSYPPTFGSGTKLEIKR | 1.7 | 2.3 | –
humanized P3D12 antibody, HC SEQ ID NO: 108 (P3D12 VH-cdr) / LC SEQ ID NO: 46 (P3D12 VL-ven) (antibody, V domains shown) VH: QVQLVQSGAEVKKPGASVKVSCKASGYTFTSYWMHWVKQAPGQGLDWIGYIKPSTDNTEYNQKFKDKATLTADKSTSTAYMELSSLRSEDTAVYYCARSYGNYPLMDYWGQGTTVTVSS VL: QIVLTQSPATMSASPGERVTLSCSASSSVTSNYLYWYQQKPGSSPRLWIYSTSNLASGVPARFSGSGSGTSYTLTISRMEPEDAASYFCHQWSSYPPTFGSGTKLEIKR | 1.1 | 1 | –
humanized P3D12 antibody, HC SEQ ID NO: 105 (P3D12 VH-fra) / LC SEQ ID NO: 46 (P3D12 VL-ven) (antibody, V domains shown) VH: QVQLQQSGAEVKKPGASVKVSCKASGYTFTSYWMHWVKQRPGQGLDWIGYIKPSTDNTEYNQKFKDRVTLTADKSTSTAYMQLSNLISEDTAVYYCARSYGNYPLMDYWGQGTSVTVSS VL: QIVLTQSPATMSASPGERVTLSCSASSSVTSNYLYWYQQKPGSSPRLWIYSTSNLASGVPARFSGSGSGTSYTLTISRMEPEDAASYFCHQWSSYPPTFGSGTKLEIKR | 1.7 | 1.2 | –
